Measurements published in patent US20250066508A1 (SHENYANG SUNSHINE PHARMACEUTICAL, published 2025).

T1: MASP1-CCP1/2-SP-RQSA (human, UniProt P48740 299-699)
T1 construct: also called human MASP-1; human MASP1-CCP1/2-SP-RQSA
T1 chain: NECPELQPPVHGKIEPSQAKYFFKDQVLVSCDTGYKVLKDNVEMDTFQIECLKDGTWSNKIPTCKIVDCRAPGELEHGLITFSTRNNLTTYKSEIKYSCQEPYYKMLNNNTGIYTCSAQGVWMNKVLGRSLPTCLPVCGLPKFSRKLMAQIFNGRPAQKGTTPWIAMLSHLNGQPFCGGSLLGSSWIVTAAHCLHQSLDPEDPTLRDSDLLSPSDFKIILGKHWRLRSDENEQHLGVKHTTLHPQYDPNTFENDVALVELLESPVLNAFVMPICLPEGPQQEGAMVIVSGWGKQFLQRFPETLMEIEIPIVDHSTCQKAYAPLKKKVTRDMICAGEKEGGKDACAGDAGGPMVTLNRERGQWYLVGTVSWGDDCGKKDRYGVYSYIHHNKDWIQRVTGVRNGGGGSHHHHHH

T2: MASP3-CCP1/2-SP-RQSA (human)
T2 construct: also called human MASP-3; human MASP3-CCP1/2-SP-RQSA
T2 chain: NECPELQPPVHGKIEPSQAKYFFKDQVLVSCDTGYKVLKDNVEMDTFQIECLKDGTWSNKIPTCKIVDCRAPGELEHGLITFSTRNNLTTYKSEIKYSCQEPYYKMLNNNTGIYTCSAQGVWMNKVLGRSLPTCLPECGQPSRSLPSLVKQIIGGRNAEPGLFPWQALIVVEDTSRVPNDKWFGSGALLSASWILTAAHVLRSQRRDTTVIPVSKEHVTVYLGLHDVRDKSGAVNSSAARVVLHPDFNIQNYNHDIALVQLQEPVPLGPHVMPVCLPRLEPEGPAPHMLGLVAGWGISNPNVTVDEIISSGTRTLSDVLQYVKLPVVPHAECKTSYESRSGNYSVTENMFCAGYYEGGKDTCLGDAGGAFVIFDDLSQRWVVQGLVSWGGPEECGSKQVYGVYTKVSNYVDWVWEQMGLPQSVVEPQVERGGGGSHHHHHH


Columns and labels:
Human MASP-2 = Human MASP-2 (human, UniProt O00187 16-686); experiment: cell-based or functional assay
Human MASP-2, sequence (O00187 16-686 limits assumed): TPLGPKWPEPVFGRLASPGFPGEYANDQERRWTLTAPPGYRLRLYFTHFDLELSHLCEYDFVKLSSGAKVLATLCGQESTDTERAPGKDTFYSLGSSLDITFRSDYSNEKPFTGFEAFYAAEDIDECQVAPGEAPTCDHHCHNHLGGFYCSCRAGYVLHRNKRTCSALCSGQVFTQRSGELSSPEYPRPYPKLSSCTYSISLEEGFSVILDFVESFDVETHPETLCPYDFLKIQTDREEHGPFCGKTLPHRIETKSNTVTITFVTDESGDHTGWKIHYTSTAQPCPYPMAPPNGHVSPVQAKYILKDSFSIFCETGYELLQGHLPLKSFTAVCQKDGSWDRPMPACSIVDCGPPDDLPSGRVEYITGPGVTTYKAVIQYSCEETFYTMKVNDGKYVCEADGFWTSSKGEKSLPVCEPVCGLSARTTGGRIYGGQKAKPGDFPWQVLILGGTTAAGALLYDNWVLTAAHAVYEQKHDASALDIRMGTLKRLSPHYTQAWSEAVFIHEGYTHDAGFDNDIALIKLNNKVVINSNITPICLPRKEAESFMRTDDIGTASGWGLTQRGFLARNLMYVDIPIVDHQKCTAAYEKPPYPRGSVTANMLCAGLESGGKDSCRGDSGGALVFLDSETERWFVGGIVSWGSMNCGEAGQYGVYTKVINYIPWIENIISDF

MASP2-CCP1/2 = biological target: T3, MASP2-CCP1/2 (human, UniProt O00187 298-443); experiment: ELISA, antigen coated 20 ng/well
T3 construct: also called CCP1/2 domain of MASP-2
T3 sequence (O00187 other isoform, or with tags, fused parts or gaps limits assumed): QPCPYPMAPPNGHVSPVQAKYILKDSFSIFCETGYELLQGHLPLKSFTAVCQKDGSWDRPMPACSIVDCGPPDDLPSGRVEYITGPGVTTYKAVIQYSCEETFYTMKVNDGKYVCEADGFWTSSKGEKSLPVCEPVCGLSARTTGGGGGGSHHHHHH
Description: (§1) The enzyme-linked immunosorbent assay (ELISA) method used in the following examples is described as follows: the microplate was coated with the corresponding recombinant protein, and PBST containing 1% bovine serum albumin (PBST is phosphate buffer containing 0.05% Tween-20) was used to block the microplate. The antibody to be tested was serially diluted, then transferred to the above-mentioned microplate coated with recombinant protein, followed by incubation at room temperature for half an hour. After washing the plate, appropriately diluted HRP (Horseradish Peroxidase)-labeled goat anti-human antibody (Fc specific, purchased from Sigma) was added, followed by incubation at room temperature for half an hour. After washing the plate, 100 μl of chromogenic solution with TMB (3,3′,5,5′-Tetramethylbenzidine) was added as substrate to each well, followed by incubation at room temperature for 1 to 5 minutes. 50 μl stop solution (2M H₂SO₄) was added to stop the reaction. OD450 was read by a plate reader (SpectraMax 190). GraphPad Prism7 was used for graphing and data analyzing, and EC₅₀/IC₅₀ was calculated.

[1] = biological target: Mouse MASP2-CCP1/2-SP-RQSA (mouse, UniProt Q91WP0 298-685); experiment: ELISA, antigen coated 20 ng/well
Mouse MASP2-CCP1/2-SP-RQSA, sequence (Q91WP0 other isoform, or with tags, fused parts or gaps limits assumed): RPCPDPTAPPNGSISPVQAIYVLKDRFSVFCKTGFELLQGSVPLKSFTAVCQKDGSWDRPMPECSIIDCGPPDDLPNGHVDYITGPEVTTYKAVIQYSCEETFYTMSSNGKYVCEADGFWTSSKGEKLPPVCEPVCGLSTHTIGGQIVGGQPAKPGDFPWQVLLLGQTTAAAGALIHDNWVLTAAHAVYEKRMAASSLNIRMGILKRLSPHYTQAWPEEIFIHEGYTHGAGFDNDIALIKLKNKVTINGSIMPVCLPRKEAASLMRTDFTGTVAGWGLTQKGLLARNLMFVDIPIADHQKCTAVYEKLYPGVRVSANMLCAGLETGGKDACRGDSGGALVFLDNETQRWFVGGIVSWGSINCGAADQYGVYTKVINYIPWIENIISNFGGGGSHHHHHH
Description: as §1

Rat MASP2-CCP1/2-SP-RQSA = Rat MASP2-CCP1/2-SP-RQSA (rat, UniProt Q9JJS8 298-685); experiment: ELISA, antigen coated 20 ng/well
Rat MASP2-CCP1/2-SP-RQSA, sequence (Q9JJS8 other isoform, or with tags, fused parts or gaps limits assumed): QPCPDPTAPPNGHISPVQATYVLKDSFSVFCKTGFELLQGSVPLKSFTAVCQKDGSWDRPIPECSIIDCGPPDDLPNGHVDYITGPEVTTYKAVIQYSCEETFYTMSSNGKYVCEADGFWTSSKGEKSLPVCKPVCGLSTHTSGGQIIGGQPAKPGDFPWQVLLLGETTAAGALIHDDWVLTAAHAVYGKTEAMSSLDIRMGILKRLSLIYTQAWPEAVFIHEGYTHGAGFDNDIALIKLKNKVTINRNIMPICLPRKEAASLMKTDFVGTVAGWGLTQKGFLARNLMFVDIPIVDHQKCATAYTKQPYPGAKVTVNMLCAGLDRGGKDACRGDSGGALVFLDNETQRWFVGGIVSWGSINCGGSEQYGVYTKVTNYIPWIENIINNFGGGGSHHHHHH
Description: as §1

[2] = biological target: T4, Rhesus MASP2-CCP1/2-SP-RQSA (rhesus macaque, UniProt O00187 298-686 (human entry), limits assumed); experiment: ELISA, antigen coated 20 ng/well
T4 construct: also called rhesus macaque MASP-2
T4 sequence (O00187 other isoform, or with tags, fused parts or gaps limits assumed): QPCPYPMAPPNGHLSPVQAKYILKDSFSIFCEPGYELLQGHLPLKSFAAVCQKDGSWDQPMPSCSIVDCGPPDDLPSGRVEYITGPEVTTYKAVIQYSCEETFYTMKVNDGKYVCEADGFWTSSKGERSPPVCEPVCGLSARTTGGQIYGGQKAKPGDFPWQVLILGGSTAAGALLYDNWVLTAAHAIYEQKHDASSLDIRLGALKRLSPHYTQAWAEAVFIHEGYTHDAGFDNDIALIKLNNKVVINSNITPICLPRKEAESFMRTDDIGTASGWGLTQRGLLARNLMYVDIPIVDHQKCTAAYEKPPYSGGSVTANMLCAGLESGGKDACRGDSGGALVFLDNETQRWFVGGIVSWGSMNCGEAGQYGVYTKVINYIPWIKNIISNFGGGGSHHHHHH
Description: as §1

MASP2-CCP1/2-SP-RKSA [3] = biological target: T5, MASP2-CCP1/2-SP-RKSA (human, UniProt O00187 298-686); experiment: ELISA, antigen coated 20 ng/well
T5 sequence (O00187 other isoform, or with tags, fused parts or gaps limits assumed): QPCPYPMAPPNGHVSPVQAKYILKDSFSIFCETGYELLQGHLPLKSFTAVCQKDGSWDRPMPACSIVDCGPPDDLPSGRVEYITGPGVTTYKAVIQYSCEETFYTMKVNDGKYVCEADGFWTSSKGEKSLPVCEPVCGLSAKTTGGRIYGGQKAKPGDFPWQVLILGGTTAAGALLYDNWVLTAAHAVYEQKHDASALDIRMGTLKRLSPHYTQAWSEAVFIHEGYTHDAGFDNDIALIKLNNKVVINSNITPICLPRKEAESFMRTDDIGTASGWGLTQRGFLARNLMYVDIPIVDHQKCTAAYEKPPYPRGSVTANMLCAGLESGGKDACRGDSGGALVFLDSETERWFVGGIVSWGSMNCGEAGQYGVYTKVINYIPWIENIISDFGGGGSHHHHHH
Description: as §1
(§2) The smaller the EC₅₀ and the larger the Top, the stronger the binding effect is.

MASP2-CCP1/2-SP-RQ [4] = biological target: T6, MASP2-CCP1/2-SP-RQ (human, UniProt O00187 298-686); experiment: ELISA, antigen coated 20 ng/well
T6 sequence (O00187 other isoform, or with tags, fused parts or gaps limits assumed): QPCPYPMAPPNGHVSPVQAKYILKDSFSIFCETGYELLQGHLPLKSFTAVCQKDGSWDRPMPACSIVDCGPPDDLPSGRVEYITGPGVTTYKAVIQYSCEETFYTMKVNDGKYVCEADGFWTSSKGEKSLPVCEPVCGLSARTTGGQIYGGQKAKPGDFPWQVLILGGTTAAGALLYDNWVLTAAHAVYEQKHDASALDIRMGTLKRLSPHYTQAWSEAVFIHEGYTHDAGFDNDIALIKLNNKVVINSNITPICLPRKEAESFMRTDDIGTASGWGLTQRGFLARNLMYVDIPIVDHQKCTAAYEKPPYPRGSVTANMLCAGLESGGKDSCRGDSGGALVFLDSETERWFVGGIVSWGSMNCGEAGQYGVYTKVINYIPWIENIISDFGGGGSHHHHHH
Description: as §1, §2

MASP2-CCP1/2-SP-RKSA [5] = biological target: T5, MASP2-CCP1/2-SP-RKSA; experiment: SPR, Biacore 8K, antibody captured on Protein A/G chip, antigen as analyte
Description: (§3) Here, the affinity between the above antibodies and MASP2-CCP1/2-SP-RKSA or MASP2-CCP1/2-SP-RQ was detected by Biacore 8K (GE healthcare). On Biacore 8K, a chip conjugated with Protein A/G was used to capture various antibodies, and then the above two recombinations were used as analytes (Analyte) to flow through the chip to obtain the binding-dissociation curve, and regeneration buffer was used to regenerate the chip and proceed to the next cycle; Biacore 8K Evaluation Software was used to analyze the data.

MASP2-CCP1/2-SP-RQ [6] = biological target: T6, MASP2-CCP1/2-SP-RQ; experiment: as above
Description: as §3

MASP2-SP-RQSA = biological target: T7, MASP2-SP-RQSA (human, UniProt O00187 445-686, limits assumed); experiment: ELISA, plate coated with MASP2-SP-RQSA (20 ng/well), HRP goat anti-human Fc, OD450
T7 construct: also called SP domain of MASP-2
T7 sequence (O00187 other isoform, or with tags, fused parts or gaps limits assumed): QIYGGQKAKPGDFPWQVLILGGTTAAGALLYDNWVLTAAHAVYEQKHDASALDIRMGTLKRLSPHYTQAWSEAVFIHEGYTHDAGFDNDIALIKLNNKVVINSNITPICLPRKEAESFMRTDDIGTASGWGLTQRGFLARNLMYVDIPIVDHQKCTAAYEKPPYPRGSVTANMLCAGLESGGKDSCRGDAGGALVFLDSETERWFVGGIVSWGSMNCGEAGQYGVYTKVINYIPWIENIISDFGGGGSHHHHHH
Description: as §1

MASP1-CCP1/2-SP-RQSA = biological target: T1, MASP1-CCP1/2-SP-RQSA; experiment: ELISA, plate coated with MASP1-CCP1/2-SP-RQSA (20 ng/well), HRP goat anti-human Fc, OD450
Description: as §1

MASP3-CCP1/2-SP-RQSA = biological target: T2, MASP3-CCP1/2-SP-RQSA; experiment: ELISA, plate coated with MASP3-CCP1/2-SP-RQSA (20 ng/well), HRP goat anti-human Fc, OD450
Description: as §1

IC50 of C3 deposition on mannan-coated microplates (40 µg/ml mannan, 1% human plasma) (Human MASP-2) [nM] | IC50 of C3 deposition on mannan-coated microplates (100 µg/ml mannan, 1% human plasma) (Human MASP-2) [nM] | EC50 (MASP2-CCP1/2) [nM] | EC50 [1] [nM] | EC50 (Rat MASP2-CCP1/2-SP-RQSA) [nM] | EC50 [2] [nM] | EC50 (MASP2-CCP1/2-SP-RKSA [3]) [nM] | EC50 (MASP2-CCP1/2-SP-RQ [4]) [nM] | Kd (MASP2-CCP1/2-SP-RKSA [5]) [nM] | koff (MASP2-CCP1/2-SP-RKSA [5]) [s⁻¹] | kon (MASP2-CCP1/2-SP-RKSA [5]) [M⁻¹ s⁻¹] | Kd (MASP2-CCP1/2-SP-RQ [6]) [nM] | koff (MASP2-CCP1/2-SP-RQ [6]) [s⁻¹] | kon (MASP2-CCP1/2-SP-RQ [6]) [M⁻¹ s⁻¹] | Binder | binding result (MASP2-SP-RQSA) | binding result (MASP1-CCP1/2-SP-RQSA) | binding result (MASP3-CCP1/2-SP-RQSA)
0.0888 | 0.0996 | 0.146 | 0.19 | 0.231 | 0.136 | 0.106 | 0.136 | 38.6 | 0.00382 | 99200 | 4.82 | 0.00361 | 750000 | 169-IgG4 (antibody, V domains shown, expressed in HEK293F; also called preferred antibody) VH: QVQLQESGPGLVKPSETLSLTCTVSGGSISSSSYYWGWIRQPPGKGLEWIGSIYYSGSTYYNPSLKSRVTISVDTSKNQFSLKLSSVTAADTAVYYCARDRRGRFDPWGQGTMVTVSS VL: SYELMQPPSMSVSPGQTASITCSGDKLGDIYAYWYQQKPGQSPVLVIYQDNKRPSGIPERFSGSNSGNTATLTISGTQAMDEADYYCQAWESSTGVFGGGTKLTVLG | no binding (tested: 100 nM (Log(Ab nM) = 2)) | no binding (tested: 100 nM (Log(Ab nM) = 2)) | no binding (tested: 100 nM (Log(Ab nM) = 2))
– | – | – | 0.169 | 0.455 | – | – | – | – | – | – | – | – | – | Narsoplimab (antibody, human IgG4 S228P, lambda, V domains shown, also called positive control antibody; Control Narsoplimab) VH: QVTLKESGPVLVKPTETLTLTCTVSGFSLSRGKMGVSWIRQPPGKALEWLAHIFSSDEKSYRTSLKSRLTISKDTSKNQVVLTMTNMDPVDTATYYCARIRRGGIDYWGQGTLVTVSS VL: QPVLTQPPSLSVSPGQTASITCSGEKLGDKYAYWYQQKPGQSPVLVMYQDKQRPSGIPERFSGSNSGNTATLTISGTQAMDEADYYCQAWDSSTAVFGGGTKLTVLG | – | – | no binding (tested: 100 nM (Log(Ab nM) = 2))
